Patent US12692302B2, “Uses of IL-13 antagonists for treating atopic dermatitis” (Genentech, Inc., priority 2016, dated 2026)

Key:
[1] = tested on: patients with persistent moderate to severe atopic dermatitis inadequately controlled by TCS; test: Clinical Study I: safety, Weeks 0 to 20; format: in vivo, human
Text: Safety Follow-Up Period. All patients who completed study treatment during the placebo-controlled treatment period (Weeks 1-12) were followed for safety for an additional 8 weeks (Weeks 13-20). During this safety follow-up period, patients were no longer required to apply the topical treatment regimen as specified during the run-in and treatment periods. Instead, triamcinolone acetonide 0.1% cream and/or hydrocortisone 2.5% cream could be applied as determined by the patient and the study investigator. At each study visit the patient was required to bring their TCS containers to the study site to be weighed. Patients were encouraged to continue applying emollients at least once daily to xerotic skin. An escalation in therapy for AD was allowed at any during the study, if, in the opinion of the investigator, it was clinically indicated.
Safety Outcome Measures. The safety outcome measures for this study were as follows: (i) frequency and severity of treatment-emergent adverse events; (ii) incidence of human anti-therapeutic antibodies (ATA) at baseline and during the study; (iii) frequency and severity of skin and other organ system infections throughout the study; the clinical definition of skin infection was as follows: the diagnosis of infection was based on the Investigator's clinical assessment including but not limited to the presence of honey-colored crusting, serous discharge, pustules, or pain at the site of rash and that may be associated with systemic features, including fever or a flare in AD disease (defined above); and (iv) incidence of disease rebound following discontinuation of study drug as assessed by the investigator; the clinical definition of disease rebound was: a significant worsening of disease severity after cessation of therapy to a severity level that is greater than prior to commencing therapy (Hijnen et al., J Eur Acad Dermatol Venereol 2007; 21(1) 85-9).

[2] = tested on: adult patients with persistent moderate to severe AD inadequately controlled by TCS; test: Clinical Study II (phase II, open label, lebrikizumab monotherapy vs TCS alone): efficacy; format: in vivo, human; settings: for % change in BSA / % change in EASI / % change in SCORAD / EASI-75 (percent of patients) / EASI-90 (percent of patients) / IGA 0/1 (percent of patients): lebrikizumab 125 mg SC Q4W monotherapy (n = 28) or TCS cream alone BID (n = 27); for % change in pruritus VAS: patients with baseline pruritus VAS ≥3, lebrikizumab 125 mg SC Q4W monotherapy or TCS cream alone BID
Text: Clinical Study II was a Phase II, randomized, open label study to evaluate the safety and efficacy of lebrikizumab monotherapy in adult patients (18-75 years of age) with persistent moderate to severe AD, who were inadequately controlled by TCS.
The inclusion criteria included the following: age 18 to 75 years; AD diagnosed by the Hanifin/Rajka criteria and that had been present for at least 1 year at screening; moderate to severe AD as graded by the Rajka/Langeland criteria at screening; history of inadequate response to a 1 month (within the 3 months prior to the screening visit) treatment regimen of at least daily TCS and regular emollient for treatment of AD; EASI score 14 at screening and end of the run-in period (Visit 3), IGA score 3 (5-point scale) at screening and end of the run-in period (Visit 3); AD involvement of 10% body surface area (BSA) at screening; and Pruritus VAS score (measured as part of the SCORAD) of 3 at screening; adherence to the protocol-specified 2-week run-in period TCS regimen (at least 10 out of 14 days) at the time of entry into the treatment period (Day 1).
Run-in Period. Following screening, eligible patients entered a 2-week run-in period (Days −14 to −1). After the run-in period, patients stopped use of their pre-study TCS (and other AD medications) and began a protocol-specified topical therapy regimen as outlined below. On the first day of the run-in period (Day −14) patients received TCS for use throughout the run-in period. Specifically, patients received triamcinolone acetonide 0.1% cream for use on the body and hydrocortisone 2.5% cream for use on the face and intertriginous areas. Patients were instructed to apply emollient to all xerotic skin surfaces at least once daily and to apply cream to active skin lesions twice per day and not to apply cream to unaffected areas.
Treatment Period (Weeks 1-12). […] A total of approximately 50 patients were randomized (1:1) to one of the following two treatment groups (see FIG. 10): Group 1: 125 mg of lebrikizumab administered by subcutaneous (SC) injection every 4 weeks (Q4W) for a total of 3 doses; and Group 2: TCS cream alone.
Efficacy Outcome Measures. The exploratory efficacy outcome measures of lebrikizumab monotherapy compared to TCS alone for this study were as follows, in order: (i) percent of patients with a 50% or 75% (EAST 50/75) reduction from baseline EASI at Week 12 (EASI-50 and EASI-75 were defined as a 50% and 75% reduction, respectively, in EASI score at Week 12 compared to baseline); (ii) percent and absolute change from baseline in EASI score at Week 12; (iii) percent of patients achieving an IGA score of 0 or 1 at Week 12; (iv) percent of patients with a ≥2 point reduction from baseline in IGA at Week 12; (v) absolute change from baseline in IGA at Week 12; (vi) percent of patients achieving an IGSA score of 0 or 1 at Week 12; (vii) percent of patients with a ≥2 point reduction from baseline in IGSA at Week 12; (viii) absolute change from baseline in IGSA at Week 12; (ix) percent and absolute change from baseline in SCORAD at Week 12; (x) percent of patients with a 50% or 75% reduction (SCORAD 50/75) from baseline in SCORAD score at Week 12; (xi) percent change from baseline in total percent body surface area (BSA) affected at Week 12; (xii) absolute- and percent-change from baseline in pruritus as measured by the Pruritus VAS (assessed as part of the SCORAD) at Week 12; (xiii) number of disease flares from baseline to Week 12; and (xiv) percent of patients who receive non-protocol specified TCS before Week 12.

[3] = 125 mg Q4W + TCS (n = 50), Weeks 0 to 20
[4] = 125 mg SD + TCS (n = 54), Weeks 0 to 20
[5] = 250 mg SD + TCS (n = 52), Weeks 0 to 20
[6] = all lebrikizumab groups (n = 156), Weeks 0 to 20
[7] = lebrikizumab-treated patients, all doses

lebrikizumab: monoclonal humanized anti-IL-13 IgG4 antibody; heavy chain SEQ ID NO: 11, light chain SEQ ID NO: 12; formulated at 125 mg/mL in prefilled syringe
AE leading to withdrawal from study drug, % [1, 3]: (4) %
Conjunctivitis allergic, % [1, 3]: (4.0) %
Injection site reactions, % [1, 3]: (4) %
Patients with at least one AE, % [1, 3]: (54) %
Patients with at least one serious AE, % [1, 3]: (4) %
SAE leading to withdrawal from study drug (Myopathy), % [1, 3]: (2) %
AE leading to withdrawal from study drug, % [1, 4]: (2) %
Conjunctivitis allergic, % [1, 4]: (7.4) %
Patients with at least one AE, % [1, 4]: (70) %
Patients with at least one serious AE, % [1, 4]: (6) %
AE leading to dose modification/interruption, % [1, 5]: (2) %
Conjunctival hyperaemia, % [1, 5]: (1.9) %
Conjunctivitis allergic, % [1, 5]: (3.8) %
Patients with at least one AE, % [1, 5]: (75) %
Conjunctival hyperaemia, % [1, 6]: (0.6) %
Conjunctivitis allergic, % [1, 6]: (5.1) %
Patients with at least one serious AE, % [1, 6]: (3) %
SAE leading to withdrawal from study drug (Myopathy), % [1, 6]: (1) %
Conjunctival infections, irritations and inflammations: patients with at least one AE, % ([1]; human, in vivo): (5.8) %
Conjunctival infections, irritations and inflammations: total number of events ([1]; human, in vivo): 10
Herpes infections: total number of infections related to study drug (investigator-assessed) ([1]; human, in vivo): 0
Infections, % ([1]; human, in vivo): (36) %
maximum eosinophil count in the five patients with eosinophil-associated AEs ([1]; human, in vivo): 0.91-3.2 ×10^9/L
Eosinophil-associated AEs, % of patients [1, 7]: 3.2%
Eosinophil-associated AEs, number of patients [1, 7]: five
patients with a conjunctivitis AE, % ([1]; pooled lebrikizumab group): 9.6%
deaths, events of anaphylaxis, malignancy, or protocol-defined parasitic or targeted intracellular infections of interest ([1]; whole study): no deaths
% change in BSA ([2]; Baseline to Week 12): −43.2%
% change in EASI ([2]; Baseline to Week 12): −44.0%
% change in SCORAD ([2]; Baseline to Week 12): −26.6%
EASI-75 (percent of patients) ([2]; Baseline to Week 12): 39.3%
EASI-90 (percent of patients) ([2]; Baseline to Week 12): 14.3%
IGA 0/1 (percent of patients) ([2]; Baseline to Week 12): 7.1%
% change in pruritus VAS ([2]; Baseline to Week 12): −14.5%
% change in BSA ([2]; Day −14 to Week 12): −52.2%
% change in EASI ([2]; Day −14 to Week 12): −53.8%
% change in SCORAD ([2]; Day −14 to Week 12): −40.5%
EASI-75 (percent of patients) ([2]; Day −14 to Week 12): 42.9%
EASI-90 (percent of patients) ([2]; Day −14 to Week 12): 14.3%
IGA 0/1 (percent of patients) ([2]; Day −14 to Week 12): 7.1%
% change in pruritus VAS ([2]; Day −14 to Week 12): −39.6%
